In one assay the target is EphA2 Sam (Homo sapiens) (UniProt P29317). The experiment in a line: ITC. The following applies: cited from earlier work.
The target of another assay is Arap3 Sam (Homo sapiens) (UniProt Q8WWN8). The experiment in a line: ITC. Particulars: cited from earlier work.
The target in assay [1] is T1, Sam domain of Arap3 (Arap3-Sam), His-tag cut away with thrombin (human, UniProt Q8WWN8 1-80).
T1 construct: Arap3, human, residues 1 to 80, encompassing the Sam domain (residues 4 to 68); same construct as m1 after thrombin cleavage of the His-tag; A few vector residues probably remain at the N-terminus after thrombin cleavage; source: E. coli BL21-Gold (DE3), pET15b, purified (nickel column); His-tag cut with thrombin, thrombin removed on a benzamidine column; not shown: His6, N-terminal, cleaved
T1 sequence (looked up): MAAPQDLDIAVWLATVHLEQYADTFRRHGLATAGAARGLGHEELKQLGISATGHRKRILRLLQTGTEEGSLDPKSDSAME
The assay can be described thus: ITC; 25 C, VP-ITC; Shiptide (1 mM) titrated into Arap3-Sam (75 uM, His-tag cut away); 1 x PBS pH 7.7; one binding site model; repeated twice. Particulars: both partners purified. (In general: Isothermal titration calorimetry measures the heat released or taken up as one component is titrated into another.)

Sequence of EphA2 Sam (Homo sapiens) (P29317 901-971): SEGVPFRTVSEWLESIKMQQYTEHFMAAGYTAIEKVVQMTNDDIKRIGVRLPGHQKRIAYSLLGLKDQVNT

As to Ship2 Sam (from UniProt O15357), the Kd (commonly the concentration at which binding is half-saturated) in the assay with EphA2 Sam (Homo sapiens) is 750 nM; with Arap3 Sam (Homo sapiens), 100 nM.

B1: Ship2-peptide Ac-EGLVHNGWDDLEFLSDITEEDL-NH2 (Shiptide) (peptide)
peptide: Ac-EGLVHNGWDDLEFLSDITEEDL-NH2
notes: region of Ship2-Sam, amino acids from 43 to 64. numbers count on: the Ship2-Sam construct, as in PDB 2K4P; source: synthetic peptide; purchased from the Protein/DNA Facility of the Medical College of Wisconsin
As for B1, in assay [1], the Kd was determined as 40000 ± 7000 nM; the dH is -2.6 ± 0.922 kcal/mol; the stoichiometry N (in general, a count of units in the complex or per binding partner) was determined as 0.8 ± 0.1.

The record behind these values is article PMC2755476, “The Sam domain of the lipid phosphatase Ship2 adopts a common model to interact with Arap3-Sam and EphA2-Sam” (BMC Structural Biology, 2009).
